Measured values published in patent US20240018502A1.
Positions count from the first letter of the chain named. Numbers in names are those of the source. One block for each binder: values may come before it.

Legend:
[1] = biological target: human complement protein C3 (human) (UniProt P01024); experiment: cell-based or functional assay
[2] = biological target: plasma purified human complement protein C3 (human) (UniProt P01024); experiment: cell-based or functional assay
plasma purified human complement protein C3 (human), sequence (P01024 23-667, chain 1 of 2): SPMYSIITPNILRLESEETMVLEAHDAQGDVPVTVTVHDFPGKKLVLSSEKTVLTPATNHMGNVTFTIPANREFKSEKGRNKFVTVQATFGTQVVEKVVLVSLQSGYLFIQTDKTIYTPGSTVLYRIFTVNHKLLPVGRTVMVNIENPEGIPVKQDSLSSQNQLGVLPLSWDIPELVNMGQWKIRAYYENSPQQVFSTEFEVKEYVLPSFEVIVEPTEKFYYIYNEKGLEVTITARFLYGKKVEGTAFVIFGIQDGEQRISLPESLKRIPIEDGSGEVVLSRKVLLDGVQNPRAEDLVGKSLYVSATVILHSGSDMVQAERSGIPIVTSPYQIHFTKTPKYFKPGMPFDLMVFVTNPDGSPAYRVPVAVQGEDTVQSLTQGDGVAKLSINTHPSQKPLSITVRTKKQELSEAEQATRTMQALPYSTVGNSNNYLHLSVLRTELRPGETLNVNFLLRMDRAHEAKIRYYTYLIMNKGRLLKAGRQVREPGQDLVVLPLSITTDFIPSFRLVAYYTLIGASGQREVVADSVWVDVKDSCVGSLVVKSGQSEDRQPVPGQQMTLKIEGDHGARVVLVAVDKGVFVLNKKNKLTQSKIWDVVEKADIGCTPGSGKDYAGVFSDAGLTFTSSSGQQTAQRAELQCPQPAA
plasma purified human complement protein C3 (human), sequence (P01024 672-1663, chain 2 of 2): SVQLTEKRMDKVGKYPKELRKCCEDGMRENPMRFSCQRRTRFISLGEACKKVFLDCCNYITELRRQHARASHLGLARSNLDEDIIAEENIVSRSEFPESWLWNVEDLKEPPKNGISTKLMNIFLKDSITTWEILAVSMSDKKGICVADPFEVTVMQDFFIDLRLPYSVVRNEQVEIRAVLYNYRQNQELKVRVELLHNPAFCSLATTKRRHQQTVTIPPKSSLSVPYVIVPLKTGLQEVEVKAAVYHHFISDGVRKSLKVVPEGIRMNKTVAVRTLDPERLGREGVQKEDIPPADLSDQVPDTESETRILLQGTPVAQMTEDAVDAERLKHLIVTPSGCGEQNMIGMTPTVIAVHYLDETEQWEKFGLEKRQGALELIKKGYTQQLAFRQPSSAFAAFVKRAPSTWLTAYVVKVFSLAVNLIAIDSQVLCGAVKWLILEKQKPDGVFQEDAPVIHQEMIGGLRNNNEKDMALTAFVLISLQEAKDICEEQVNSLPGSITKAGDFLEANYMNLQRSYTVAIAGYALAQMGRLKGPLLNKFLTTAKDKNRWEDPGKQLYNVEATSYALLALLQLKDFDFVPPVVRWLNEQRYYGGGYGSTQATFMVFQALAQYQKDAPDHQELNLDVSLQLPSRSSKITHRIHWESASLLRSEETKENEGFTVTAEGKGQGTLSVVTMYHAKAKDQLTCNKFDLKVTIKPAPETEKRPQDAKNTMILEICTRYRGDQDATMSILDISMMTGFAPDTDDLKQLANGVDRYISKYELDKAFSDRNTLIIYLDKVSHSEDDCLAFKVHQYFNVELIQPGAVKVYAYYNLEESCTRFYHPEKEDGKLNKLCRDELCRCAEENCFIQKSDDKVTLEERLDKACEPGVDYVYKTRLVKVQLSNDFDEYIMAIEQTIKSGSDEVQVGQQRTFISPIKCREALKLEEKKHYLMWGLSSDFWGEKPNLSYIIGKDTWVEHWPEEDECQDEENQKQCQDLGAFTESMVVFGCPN

human complement protein C3 (human), sequence (P01024 23-667, chain 1 of 2): as the sequence (P01024 23-667, chain 1 of 2) above
human complement protein C3 (human), sequence (P01024 672-1663, chain 2 of 2): as the sequence (P01024 672-1663, chain 2 of 2) above

EC50 (nM), cleavage of purified hC3 in vitro [1]: 1.39 nM
B1: Q38H/I41A/D60bV/F60eT/Y60gW/ins97aE/F97T/T98G/F99L/C122S/Q175L/Q192E (enzyme)
chain: VVGGTDADEGEWPWQVSLHALGHGHACGASLISPNWLVSAAHCYIDVRGTRWSDPTQWTAFLGLHDQSQRSAPGVQERRLKRIISHPFFNDTEGLDYDIALLELEKPAEYSSMVRPISLPDASHVFPAGKAIWVTGWGHTQYGGTGALILQKGEIRVINQTTCENLLPQLITPRMMCVGFLSGGVDSCEGDSGGPLSSVEADGRIFQAGVVSWGDGCAQRNKPGVYTRLPLFRDWIKENTGV

EC50 (nM), cleavage of purified hC3 in vitro [1]: 1.17 nM
B2: Q38H/I41S/D60bT/F60eS/Y60gW/D96F/F97D/ins97aE/T98S/F99L/C122S/G151H/Q175L/Q192A (enzyme)
chain: B1 chain with A26S, V47T, T50S, D91F, T92D, G94S, G146H, E189A

EC50 (nM), cleavage of purified hC3 in vitro [1]: 1.57 nM
B3: Q38H/I41A/D60bV/F60eA/Y60gW/F97T/ins97aE/T98G/F99L/C122S/Q175L/Q192V (enzyme)
chain: B1 chain with T50A, E189V

EC50 (nM), cleavage of purified hC3 in vitro [1]: 1.45 nM
B4: Q38H/I41S/D60bT/F60eS/Y60gW/D96K/F97G/ins97aV/T98P/F99L/C122S/G151H/Q175L (enzyme)
chain: B1 chain with A26S, V47T, T50S, D91K, T92G, E93V, G94P, G146H, E189Q

EC50 (nM), cleavage of purified hC3 in vitro [1]: 2.37 nM
B5: Q38H/I41A/D60bV/F60eR/Y60gW/ins97aE/F97T/T98G/F99L/C122S/Q175L/Q192D (enzyme)
chain: B1 chain with T50R, E189D

EC50 (nM), cleavage of purified hC3 in vitro [1]: 2.07 nM
B6: Q38H/I41A/D60bV/F60eR/Y60gW/D96S/ins97aR/F97A/T98S/F99L/C122S/G151N/Q175L/Q192T (enzyme)
chain: B1 chain with T50R, D91S, T92A, E93R, G94S, G146N, E189T

EC50 (nM), cleavage of purified hC3 in vitro [1]: 1.57 nM
B7: Q38H/I41S/D60bF/F60eV/F97D/ins97aV/T98P/F99L/C122S/G151N/Q175L/Q192A (enzyme)
chain: B1 chain with A26S, V47F, T50V, W52Y, T92D, E93V, G94P, G146N, E189A

EC50 (nM), cleavage of purified hC3 in vitro [1]: 1.31 nM
B8: Q38H/I41S/D60bT/F60eS/Y60gW/ins97aV/F97D/T98P/F99L/C122S/G151H/Q175L (enzyme)
chain: B1 chain with A26S, V47T, T50S, T92D, E93V, G94P, G146H, E189Q

EC50 (nM), cleavage of purified hC3 in vitro [1]: 1.43 nM
B9: Q38H/I41S/D60bT/F60eS/Y60gW/D96K/F97G/ins97aA/T98P/F99L/C122S/G151H/Q175L/Q192D (enzyme)
chain: B1 chain with A26S, V47T, T50S, D91K, T92G, E93A, G94P, G146H, E189D

EC50 (nM), cleavage of purified hC3 in vitro [1]: 1.96 nM
B10: Q38F/I41S/D60bF/F60eR/Y60gF/F97T/ins97aE/T98G/F99L/C122S/G151N/Q175L/Q192V (enzyme)
chain: B1 chain with H23F, A26S, V47F, T50R, W52F, G146N, E189V

EC50 (nM), cleavage of purified hC3 in vitro [1]: 1.83 nM
B11: Q38H/I41A/D60bV/F60eR/Y60gW/D96P/ins97aN/F97W/T98G/F99L/C122S/G151H/Q175L/Q192D (enzyme)
chain: B1 chain with T50R, D91P, T92W, E93N, G146H, E189D

EC50 (nM), cleavage of purified hC3 in vitro [1]: 2.28 nM
B12: Q38H/I41A/D60bT/F60eH/Y60gW/ins97aE/F97T/T98G/F99L/C122S/Q175L/Q192D (enzyme)
chain: B1 chain with V47T, T50H, E189D

EC50 (nM), cleavage of purified hC3 in vitro [1]: 2.23 nM
B13: Q38H/I41A/D60bV/F60eR/Y60gW/D96I/ins97aN/F97Y/T98G/F99L/C122S/G151N/Q175L/Q192D (enzyme)
chain: B1 chain with T50R, D91I, T92Y, E93N, G146N, E189D

EC50 (nM), cleavage of purified hC3 in vitro [1]: 1.57 nM
B14: Q38H/I41A/D60bV/F60eR/Y60gW/D96I/ins97aN/F97Y/T98G/F99L/C122S/G151H/Q175L/Q192D (enzyme)
chain: B1 chain with T50R, D91I, T92Y, E93N, G146H, E189D

EC50 (nM), cleavage of purified hC3 in vitro [1]: 1.25 nM
B15: Q38F/I41A/D60bT/F60eG/Y60gW/ins97aE/F97T/T98G/F99L/C122S/Q175L/Q192E (enzyme)
chain: B1 chain with H23F, V47T, T50G

EC50 (nM), cleavage of purified hC3 in vitro [1]: 1.51 nM
B16: Q38H/I41A/D60bV/F60eR/Y60gW/D96P/ins97aN/F97W/T98G/F99L/C122S/G151N/Q175L/Q192E (enzyme)
chain: B1 chain with T50R, D91P, T92W, E93N, G146N

EC50 (nM), cleavage of purified hC3 in vitro [1]: 1.08 nM
B17: Q38Y/I41S/D60bT/F60eR/Y60gW/D96M/F97N/T98G/F99L/C122S/G151N/Q175L (enzyme)
chain: VVGGTDADEGEWPWQVSLHALGYGHSCGASLISPNWLVSAAHCYIDTRGRRWSDPTQWTAFLGLHDQSQRSAPGVQERRLKRIISHPFFNMNGLDYDIALLELEKPAEYSSMVRPISLPDASHVFPAGKAIWVTGWGHTQYGGTNALILQKGEIRVINQTTCENLLPQLITPRMMCVGFLSGGVDSCQGDSGGPLSSVEADGRIFQAGVVSWGDGCAQRNKPGVYTRLPLFRDWIKENTGV

EC50 (nM), cleavage of purified hC3 in vitro [1]: 0.866 nM
B18: ins97aA/F97G/T98L/C122S/Q175M/Q192A/D217I/K224R (enzyme)
chain: VVGGTDADEGEWPWQVSLHALGQGHICGASLISPNWLVSAAHCYIDDRGFRYSDPTQWTAFLGLHDQSQRSAPGVQERRLKRIISHPFFNDGALFDYDIALLELEKPAEYSSMVRPISLPDASHVFPAGKAIWVTGWGHTQYGGTGALILQKGEIRVINQTTCENLLPQMITPRMMCVGFLSGGVDSCAGDSGGPLSSVEADGRIFQAGVVSWGIGCAQRNRPGVYTRLPLFRDWIKENTGV

EC50 (nM), cleavage of purified hC3 in vitro [1]: 2.42 nM
B19: ins97aY/F97G/T98V/C122S/Q175M/Q192S/D217V (enzyme)
chain: B18 chain with A93Y, L94V, A189S, I215V, R222K

EC50 of hC3 cleavage [2]: 259 nM
B20: MTSP-1 F97T/ins97aE/T98G/F99L/C122S/Q175L/Q192E (enzyme)
chain: B1 chain with H23Q, A26I, V47D, T50F, W52Y

EC50 (nM), cleavage of purified hC3 in vitro [1]: 1.53 nM
B21: Q38Y/I41A/D60bL/F60eQ/ins97aV/F97D/T98P/F99L/C122S/G151N/Q175M/Q192A (enzyme)
chain: B1 chain with H23Y, V47L, T50Q, W52Y, T92D, E93V, G94P, G146N, L170M, E189A

EC50 (nM), cleavage of purified hC3 in vitro [1]: 1.97 nM
B22: Q38H/I41S/D60bY/D96Y/ins97aV/F97D/T98P/F99L/L106M/C122S/I136M/Q192G/Q209L/D217T (enzyme)
chain: VVGGTDADEGEWPWQVSLHALGHGHSCGASLISPNWLVSAAHCYIDYRGFRYSDPTQWTAFLGLHDQSQRSAPGVQERRLKRIISHPFFNYDVPLDYDIALMELEKPAEYSSMVRPISLPDASHVFPAGKAMWVTGWGHTQYGGTGALILQKGEIRVINQTTCENLLPQQITPRMMCVGFLSGGVDSCGGDSGGPLSSVEADGRIFLAGVVSWGTGCAQRNKPGVYTRLPLFRDWIKENTGV
